Source: patent US20140348819A1, “Methods of Treating Cancer” (Dana-Farber Cancer Institute, Inc., priority 2011, published 2014)

Test system: six V600E BRAF melanoma cell lines
Assay: Screening of recombinant RTK ligands for ability to confer resistance to BRAFi (PLX4720) or MEKi (PD184352) (Table 4)
Assay type: cell-based, human
Parameters: ability of recombinant RTK ligand to confer resistance / ability of recombinant RTK ligand to confer resistance (screening value): scale not given here
Outline: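 Six V600E BRAF melanoma lines treated with PLX4720 or PD184352 after addition of 22 recombinant RTK ligands, scored for drug resistance. Activation of selected RTKs confirmed by western blotting and high-throughput tyrosine kinase phosphorylation profiling.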

B1: Gas6 (protein, UniProt Q14393 31-678, looked up)
Growth arrest-specific …: ALLPAREATQFLRPRQRRAFQVFEEAKQGHLERECVEELCSREEAREVFENDPETDYFYPRYLDCINKYGSPYTKNSGFATCVQNLPDQCTPNPCDRKGTQACQDLMGNFFCLCKAGWGGRLCDKDVNECSQENGGCLQICHNKPGSFHCSCHSGFELSSDGRTCQDIDECADSEACGEARCKNLPGSYSCLCDEGFAYSSQEKACRDVDECLQGRCEQVCVNSPGSYTCHCDGRGGLKLSQDMDTCEDILPCVPFSVAKSVKSLYLGRMFSGTPVIRLRFKRLQPTRLVAEFDFRTFDPEGILLFAGGHQDSTWIVLALRAGRLELQLRYNGVGRVTSSGPVINHGMWQTISVEELARNLVIKVNRDAVMKIAVAGDLFQPERGLYHLNLTVGGIPFHEKDLVQPINPRLDGCMRSWNWLNGEDTTIQETVKVNTRMQCFSVTERGSFYPGSGFAFYSLDYMRTPLDVGTESTWEVEVVAHIRPAADTGVLFALWAPDLRAVPLSVALVDYHSTKKLKKQLVVLAVEHTALALMEIKVCDGQEHVVTVSLRDGEATLEVDGTRGQSEVSAAQLQERLAVLERHLRSPVLTFAGGLPDVPVTSAPVTAFYRGCMTLEVNRRLLDLDEAAYKHSDITAHSCPPVEPAAA
A2058, PD184352 - 1 uM, ligand 6.25 ng/ml
  ability of recombinant RTK ligand to confer resistance: 0.99
A2058, PD184352 - 1 uM, ligand 25 ng/ml
  ability of recombinant RTK ligand to confer resistance: 0.97
A2058, PD184352 - 1 uM, ligand 100 ng/ml
  ability of recombinant RTK ligand to confer resistance: 1.02
A2058, PD184352 - 1 uM, ligand 400 ng/ml
  ability of recombinant RTK ligand to confer resistance: 0.97
A2058, PD184352 - 1 uM, ligand 1600 ng/ml
  ability of recombinant RTK ligand to confer resistance: 0.95
A2058, PLX4720 - 2 uM, ligand 6.25 ng/ml
  ability of recombinant RTK ligand to confer resistance: 1.01
A2058, PLX4720 - 2 uM, ligand 25 ng/ml
  ability of recombinant RTK ligand to confer resistance: 1.00
A2058, PLX4720 - 2 uM, ligand 100 ng/ml
  ability of recombinant RTK ligand to confer resistance: 0.98
A2058, PLX4720 - 2 uM, ligand 400 ng/ml
  ability of recombinant RTK ligand to confer resistance: 0.98
A2058, PLX4720 - 2 uM, ligand 1600 ng/ml
  ability of recombinant RTK ligand to confer resistance: 0.97
C32, PD184352 - 1 uM, ligand 6.25 ng/ml
  ability of recombinant RTK ligand to confer resistance: 1.02
C32, PD184352 - 1 uM, ligand 25 ng/ml
  ability of recombinant RTK ligand to confer resistance: 1.01
C32, PD184352 - 1 uM, ligand 100 ng/ml
  ability of recombinant RTK ligand to confer resistance: 1.01
C32, PD184352 - 1 uM, ligand 400 ng/ml
  ability of recombinant RTK ligand to confer resistance: 1.15
C32, PD184352 - 1 uM, ligand 1600 ng/ml
  ability of recombinant RTK ligand to confer resistance: 0.91
C32, PLX4720 - 2 uM, ligand 6.25 ng/ml
  ability of recombinant RTK ligand to confer resistance: 1.05
C32, PLX4720 - 2 uM, ligand 25 ng/ml
  ability of recombinant RTK ligand to confer resistance: 0.89
C32, PLX4720 - 2 uM, ligand 100 ng/ml
  ability of recombinant RTK ligand to confer resistance: 1.00
C32, PLX4720 - 2 uM, ligand 400 ng/ml
  ability of recombinant RTK ligand to confer resistance: 1.05
C32, PLX4720 - 2 uM, ligand 1600 ng/ml
  ability of recombinant RTK ligand to confer resistance: 0.95
Colo 829, PD184352 - 1 uM, ligand 6.25 ng/ml
  ability of recombinant RTK ligand to confer resistance: 0.98
Colo 829, PD184352 - 1 uM, ligand 25 ng/ml
  ability of recombinant RTK ligand to confer resistance: 1.01
Colo 829, PD184352 - 1 uM, ligand 100 ng/ml
  ability of recombinant RTK ligand to confer resistance: 0.98
Colo 829, PD184352 - 1 uM, ligand 400 ng/ml
  ability of recombinant RTK ligand to confer resistance: 0.99
Colo 829, PD184352 - 1 uM, ligand 1600 ng/ml
  ability of recombinant RTK ligand to confer resistance: 1.02
Colo 829, PLX4720 - 2 uM, ligand 6.25 ng/ml
  ability of recombinant RTK ligand to confer resistance: 0.97
Colo 829, PLX4720 - 2 uM, ligand 25 ng/ml
  ability of recombinant RTK ligand to confer resistance: 1.02
Colo 829, PLX4720 - 2 uM, ligand 100 ng/ml
  ability of recombinant RTK ligand to confer resistance: 0.94
Colo 829, PLX4720 - 2 uM, ligand 400 ng/ml
  ability of recombinant RTK ligand to confer resistance: 0.99
Colo 829, PLX4720 - 2 uM, ligand 1600 ng/ml
  ability of recombinant RTK ligand to confer resistance: 1.03
G-361, PD184352 - 1 uM, ligand 6.25 ng/ml
  ability of recombinant RTK ligand to confer resistance: 1.03
G-361, PD184352 - 1 uM, ligand 25 ng/ml
  ability of recombinant RTK ligand to confer resistance: 1.00
G-361, PD184352 - 1 uM, ligand 100 ng/ml
  ability of recombinant RTK ligand to confer resistance: 0.91
G-361, PD184352 - 1 uM, ligand 400 ng/ml
  ability of recombinant RTK ligand to confer resistance: 0.94
G-361, PD184352 - 1 uM, ligand 1600 ng/ml
  ability of recombinant RTK ligand to confer resistance: 0.88
G-361, PLX4720 - 2 uM, ligand 6.25 ng/ml
  ability of recombinant RTK ligand to confer resistance: 0.97
G-361, PLX4720 - 2 uM, ligand 25 ng/ml
  ability of recombinant RTK ligand to confer resistance: 0.95
G-361, PLX4720 - 2 uM, ligand 100 ng/ml
  ability of recombinant RTK ligand to confer resistance: 0.98
G-361, PLX4720 - 2 uM, ligand 400 ng/ml
  ability of recombinant RTK ligand to confer resistance: 0.97
G-361, PLX4720 - 2 uM, ligand 1600 ng/ml
  ability of recombinant RTK ligand to confer resistance: 0.85
SK-MEL-5, PD184352 - 1 uM, ligand 6.25 ng/ml
  ability of recombinant RTK ligand to confer resistance: 0.99
SK-MEL-5, PD184352 - 1 uM, ligand 25 ng/ml
  ability of recombinant RTK ligand to confer resistance: 1.01
SK-MEL-5, PD184352 - 1 uM, ligand 100 ng/ml
  ability of recombinant RTK ligand to confer resistance: 0.97
SK-MEL-5, PD184352 - 1 uM, ligand 400 ng/ml
  ability of recombinant RTK ligand to confer resistance: 0.89
SK-MEL-5, PD184352 - 1 uM, ligand 1600 ng/ml
  ability of recombinant RTK ligand to confer resistance: 0.94
SK-MEL-5, PLX4720 - 2 uM, ligand 6.25 ng/ml
  ability of recombinant RTK ligand to confer resistance: 0.98
SK-MEL-5, PLX4720 - 2 uM, ligand 25 ng/ml
  ability of recombinant RTK ligand to confer resistance: 1.00
SK-MEL-5, PLX4720 - 2 uM, ligand 100 ng/ml
  ability of recombinant RTK ligand to confer resistance: 1.03
SK-MEL-5, PLX4720 - 2 uM, ligand 400 ng/ml
  ability of recombinant RTK ligand to confer resistance: 1.05
SK-MEL-5, PLX4720 - 2 uM, ligand 1600 ng/ml
  ability of recombinant RTK ligand to confer resistance: 0.97
SK-MEL-28, PD184352 - 1 uM, ligand 6.25 ng/ml
  ability of recombinant RTK ligand to confer resistance: 1.03
SK-MEL-28, PD184352 - 1 uM, ligand 25 ng/ml
  ability of recombinant RTK ligand to confer resistance: 0.87
SK-MEL-28, PD184352 - 1 uM, ligand 100 ng/ml
  ability of recombinant RTK ligand to confer resistance: 1.00
SK-MEL-28, PD184352 - 1 uM, ligand 400 ng/ml
  ability of recombinant RTK ligand to confer resistance: 1.01
SK-MEL-28, PD184352 - 1 uM, ligand 1600 ng/ml
  ability of recombinant RTK ligand to confer resistance: 1.14
SK-MEL-28, PLX4720 - 2 uM, ligand 6.25 ng/ml
  ability of recombinant RTK ligand to confer resistance: 1.13
SK-MEL-28, PLX4720 - 2 uM, ligand 25 ng/ml
  ability of recombinant RTK ligand to confer resistance: 0.96
SK-MEL-28, PLX4720 - 2 uM, ligand 100 ng/ml
  ability of recombinant RTK ligand to confer resistance: 1.04
SK-MEL-28, PLX4720 - 2 uM, ligand 400 ng/ml
  ability of recombinant RTK ligand to confer resistance: 1.08
SK-MEL-28, PLX4720 - 2 uM, ligand 1600 ng/ml
  ability of recombinant RTK ligand to confer resistance: 1.22
